Laboratory results from patent US20180002412A1 (UNIVERSITY OF CONNECTICUT, published 2018).

Tests used:
[1] = target: T1, HSP90 (endogenous, from MDA-MB-231 cells and MDA-MB-231 xenograft tumor lysates) (human, UniProt P08238 2-724); assay: immunoprecipitation from MDA-MB-231 xenograft tumor lysates, immunoblot with commercial HSP90 antibody
T1 construct: The isoform is not resolved in these experiments; HSP90α (P07900) may also be present; also called cell surface HSP90
Method: RIPA lysates of xenograft tumor pieces were used for immunoprecipitation with 15 μg of HCAb1 and HCAb2. Immunoprecipitated HSP90β protein was detected on an immunoblot using commercial HSP90 antibody. […] Equal amounts of HCAb1 and HCAb2 were pulled down as detected by anti-mouse IgG antibody.
Xenograft tumor pieces were placed in 500 μL of 1% Triton™ X-100+0.1% SDS/PBS lysis buffer supplemented with 0.2 mM sodium orthovanadate and fresh protease inhibitor cocktail (1:100) and homogenized using polytron homogenizer for 30 sec −1 min on ice. Homogenates were spun at 14,000 rpm for 20 min at 4° C. and supernatants were used for immunoprecipitation.
We also wanted to determine if HCAb2 can bind to HSP90 from the xenograft tumor lysates. Xenograft tumor pieces were homogenized and incubated with exogenous HCAb1 and HCAb2. Immunoprecipitated proteins were detected using the commercial HSP90 antibody. […] In summary, we observed that HCAb2 bound preferentially to a small population of MDA-MB-231 xenograft tumor cells in comparison to the normal mouse tissues and also pulled down HSP90 from xenograft tumor lysates.

Clathrin heavy chain 1 = target: T2, Clathrin heavy chain 1 (UniProt Q00610 2-1675); assay: immunoprecipitation from MDA-MB-231 1% Triton X-100 lysate, gel band identified by LC-MS/MS
T2 construct: Endogenous protein, immunoprecipitated from cell lysate and stained in permeabilized MCF7 cells; also called CLTC
Method: FIGS. 3 A and B show immunoprecipitation of respective target antigens by HCAb1 and HCAb2. 20 μg of HCAb1 and HCAb2 were used to immunoprecipitate the target antigens from 1% Triton X-100 (A) or 1% Triton X-100+0.1% SDS (B) MDA-MB-231 lysates. The immunoprecipitated proteins were run on a reducing SDS-PAGE gel and the proteins in the gel were stained with SYPRO® Ruby stain. * indicates the specific band for HCAb1 (A) and HCAb2 (B).
In order to determine the antigens recognized by the HCAbs, we performed immunoprecipitation of the antigens followed by protein identification using mass spectrometry. We chose MDA-MB-231 cell lysates since the respective target antigens for both HCAb1 (FIG. 1L) and HCAb2 (FIGS. 1C, 1I and 1O) were abundant in MDA-MB-231 cells. The immunoprecipitated proteins were run on a reducing SDS-PAGE gel and visualized using SYPRO® Ruby stain. […] Furthermore, these buffer conditions were unfavorable for HCAb1 to immunoprecipitate the band seen previously (FIG. 3A) in the buffer lacking SDS.
The specific gel bands (*) observed in FIGS. 3A and 3B were excised and the tryptic peptides were analyzed by mass spectrometry. Peptides identified from the analysis were used to search the SwissProt database to obtain the list of target proteins. Tables 1 and 2 list the top five proteins identified from the HCAb1 and HCAb2 immunoprecipitated bands, respectively. […]

Recombinant human HSP90β = target: T3, Recombinant human HSP90β (human, UniProt P08238 1-724, limits assumed); assay: immunoprecipitation of recombinant HSP90β, immunoblot with commercial HSP90 antibody
T3 construct: Bought protein; also called heat shock protein HSP 90-beta; HSP90AB1
Method: FIGS. 4 A and B show a validation of the target antigens of HCAb1 and HCAb2. […] Immunoprecipitation of HSP90 was performed from cytosolic and plasma membrane (PM) fractions using HCAb2. The immunoprecipitated HSP90 was detected using a commercial HSP90 antibody. […] HCAb1 and HCAb2 (5 μg each) were used to immunoprecipitate recombinant HSP90β (1 μg) resuspended in either 1% Triton X-100+0.1% SDS or 1% Triton X-100+1% SDS buffers. The immunoprecipitated HSP90β protein was detected using a commercial HSP90 antibody. Equal amounts of HCAb1 and HCAb2 were pulled down as detected by anti-mouse IgG antibody.
The list of proteins identified for HCAb2 contained both HSP90α and HSP90β isoforms with HSP90β being the highest scoring protein (Table 2). […] Of the 45 peptides, 3 peptides were unique to HSP90α, while 15 peptides were unique to HSP90β and the remaining 27 peptides were common to both the isoforms. […] To test this, we used recombinant human HSP90β (highest scoring protein from Table 2) to determine the specificity of HCAb2. HCAb1 and HCAb2 were examined for their ability to immunoprecipitate HSP90β and the presence of HSP90β detected using the commercial HSP90 antibody. […] This interaction was abolished when the SDS concentration was elevated from 0.1% to 1%. […]

T1 sequence (P08238 2-724 limits assumed): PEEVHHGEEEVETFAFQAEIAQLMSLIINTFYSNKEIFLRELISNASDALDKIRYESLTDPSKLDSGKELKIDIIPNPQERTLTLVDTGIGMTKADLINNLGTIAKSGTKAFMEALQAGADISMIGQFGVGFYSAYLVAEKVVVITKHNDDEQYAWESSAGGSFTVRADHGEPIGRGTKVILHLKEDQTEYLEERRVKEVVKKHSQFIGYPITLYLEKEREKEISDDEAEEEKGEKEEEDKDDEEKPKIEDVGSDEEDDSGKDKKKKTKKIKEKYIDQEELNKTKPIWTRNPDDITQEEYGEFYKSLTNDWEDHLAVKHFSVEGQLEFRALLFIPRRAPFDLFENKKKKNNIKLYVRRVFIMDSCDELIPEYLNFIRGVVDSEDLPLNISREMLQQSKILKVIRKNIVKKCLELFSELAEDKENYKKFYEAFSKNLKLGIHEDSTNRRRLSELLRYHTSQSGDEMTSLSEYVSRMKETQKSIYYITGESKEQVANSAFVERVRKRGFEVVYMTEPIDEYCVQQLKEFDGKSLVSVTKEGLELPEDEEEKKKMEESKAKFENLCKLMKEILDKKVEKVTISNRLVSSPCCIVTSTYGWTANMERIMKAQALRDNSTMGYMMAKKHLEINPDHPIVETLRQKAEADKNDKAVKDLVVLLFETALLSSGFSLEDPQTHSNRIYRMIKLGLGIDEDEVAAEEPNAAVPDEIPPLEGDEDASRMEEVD
T3 sequence (P08238 whole entry): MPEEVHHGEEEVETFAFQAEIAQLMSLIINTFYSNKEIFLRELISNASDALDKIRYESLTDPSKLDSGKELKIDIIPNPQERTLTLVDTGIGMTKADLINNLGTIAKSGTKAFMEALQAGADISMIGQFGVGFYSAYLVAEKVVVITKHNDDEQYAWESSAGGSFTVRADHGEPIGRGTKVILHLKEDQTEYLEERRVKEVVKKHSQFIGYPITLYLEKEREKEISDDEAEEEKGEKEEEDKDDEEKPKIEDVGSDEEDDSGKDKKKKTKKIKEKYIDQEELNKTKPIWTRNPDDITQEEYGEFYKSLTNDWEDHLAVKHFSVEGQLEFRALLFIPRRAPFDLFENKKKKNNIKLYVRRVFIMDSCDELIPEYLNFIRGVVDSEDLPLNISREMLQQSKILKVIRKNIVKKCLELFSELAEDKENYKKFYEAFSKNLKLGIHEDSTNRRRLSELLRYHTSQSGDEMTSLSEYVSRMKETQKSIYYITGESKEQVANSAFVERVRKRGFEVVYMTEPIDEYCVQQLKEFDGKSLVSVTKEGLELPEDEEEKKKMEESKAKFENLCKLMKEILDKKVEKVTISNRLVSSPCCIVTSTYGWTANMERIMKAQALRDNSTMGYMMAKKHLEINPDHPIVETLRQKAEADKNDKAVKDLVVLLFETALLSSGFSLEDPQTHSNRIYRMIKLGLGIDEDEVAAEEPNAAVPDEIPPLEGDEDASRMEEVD
T2 sequence (Q00610 2-1675 limits assumed): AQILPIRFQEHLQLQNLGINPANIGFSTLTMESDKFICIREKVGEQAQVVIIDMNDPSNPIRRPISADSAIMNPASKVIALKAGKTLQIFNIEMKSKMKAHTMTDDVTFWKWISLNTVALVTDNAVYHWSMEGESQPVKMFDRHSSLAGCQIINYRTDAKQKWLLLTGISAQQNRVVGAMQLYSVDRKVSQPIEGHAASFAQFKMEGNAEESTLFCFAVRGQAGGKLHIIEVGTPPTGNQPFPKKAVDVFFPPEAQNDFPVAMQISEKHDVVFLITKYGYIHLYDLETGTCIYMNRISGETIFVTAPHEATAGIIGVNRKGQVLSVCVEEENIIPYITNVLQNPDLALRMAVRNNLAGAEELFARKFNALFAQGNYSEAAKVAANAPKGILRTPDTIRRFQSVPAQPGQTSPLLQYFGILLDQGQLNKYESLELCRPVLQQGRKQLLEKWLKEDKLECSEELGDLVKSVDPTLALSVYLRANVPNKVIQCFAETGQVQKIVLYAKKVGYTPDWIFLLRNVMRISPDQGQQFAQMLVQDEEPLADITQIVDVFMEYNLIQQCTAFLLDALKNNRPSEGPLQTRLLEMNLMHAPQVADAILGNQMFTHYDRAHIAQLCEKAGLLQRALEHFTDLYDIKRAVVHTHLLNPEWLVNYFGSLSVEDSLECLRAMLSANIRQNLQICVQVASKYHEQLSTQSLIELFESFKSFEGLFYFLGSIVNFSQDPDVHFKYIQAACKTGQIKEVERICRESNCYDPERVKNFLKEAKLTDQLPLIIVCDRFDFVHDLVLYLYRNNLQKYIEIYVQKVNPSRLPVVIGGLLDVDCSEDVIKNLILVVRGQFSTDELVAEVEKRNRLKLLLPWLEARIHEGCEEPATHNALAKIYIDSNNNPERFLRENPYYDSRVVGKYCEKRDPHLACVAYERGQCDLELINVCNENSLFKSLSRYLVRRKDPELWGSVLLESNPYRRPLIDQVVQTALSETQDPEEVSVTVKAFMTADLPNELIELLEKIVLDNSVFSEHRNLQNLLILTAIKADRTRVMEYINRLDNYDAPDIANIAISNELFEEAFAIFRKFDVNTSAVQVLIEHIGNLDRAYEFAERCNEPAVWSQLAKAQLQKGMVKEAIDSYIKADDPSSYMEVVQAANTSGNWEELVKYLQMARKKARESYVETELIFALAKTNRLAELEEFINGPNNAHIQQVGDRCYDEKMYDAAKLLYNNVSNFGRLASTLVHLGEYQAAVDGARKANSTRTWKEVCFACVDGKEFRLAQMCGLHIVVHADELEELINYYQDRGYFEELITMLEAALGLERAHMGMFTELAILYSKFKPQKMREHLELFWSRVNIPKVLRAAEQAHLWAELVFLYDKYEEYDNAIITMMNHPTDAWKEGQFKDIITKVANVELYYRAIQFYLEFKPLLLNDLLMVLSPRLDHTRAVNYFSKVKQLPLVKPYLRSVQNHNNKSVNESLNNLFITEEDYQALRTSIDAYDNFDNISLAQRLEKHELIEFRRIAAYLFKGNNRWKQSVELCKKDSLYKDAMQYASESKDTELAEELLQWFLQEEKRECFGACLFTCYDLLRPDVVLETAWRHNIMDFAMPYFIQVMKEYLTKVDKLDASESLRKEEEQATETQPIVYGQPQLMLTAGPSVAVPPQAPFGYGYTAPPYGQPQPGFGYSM

binding result [1]: no binding (tested: 15 µg of HCAb1)
binding result (Clathrin heavy chain 1): binds
binding result (Recombinant human HSP90β): no binding (tested: 1 µg HSP90β)
B1: HCAb1 (Fc fusion)
heavy: QVQLVQSGGGLVQPGGSLRLSCAASGFTFSSYAMSWVRQAPGKGLEWVSAISGSGGSTYYADSVKGRFTISRDNSKNTLYLQMNSLRAEDTAVYYCARQEGQWLVQIDYWGQGTLVTVSS
notes: Human VH fused to the mouse Fc domain, no light chain, bivalent; It served as the control antibody for HCAb2; also called heavy chain antibody 1; not shown: mouse Fc domain from vector pCMV6-AC-FC-S (OriGene), with any junction residues encoded by the PCR primers
